Consider one molecule from article PMC9354549, “SARS-CoV-2 Nucleocapsid Protein Has DNA-Melting and Strand-Annealing Activities With Different Properties From SARS-CoV-2 Nsp13”.

For data set [1], the target named is SARS-CoV-2 nucleocapsid protein (CoV-2 N) (SARS-CoV-2 (2019-nCoV), UniProt P0DTC9 1-419). Put plainly: fluorescence anisotropy; 300 mM NaCl; 5 nM DNA; Kd was fitted but its value is only in Figure 7A; Fluorescence anisotropy, 50 mM Tris-HCl pH 7.0 with 300 mM NaCl (N) or 20 mM NaCl (Nsp13); 5 min equilibration, second reading after 10 min; temperature not stated. As to conditions: protein: recombinant; chain copies: 2; label: 3'-FAM (fluorescein); single strand, 43 nt.

Data set [2] addresses SARS-CoV-2 nonstructural protein 13 (CoV-2 Nsp13) (SARS-CoV-2, UniProt P0DTD1 5325-5925). Put plainly: fluorescence anisotropy; Fluorescence anisotropy, 50 mM Tris-HCl pH 7.0 with 300 mM NaCl ([…]) or 20 mM NaCl ([…]; temperature not stated. As to conditions: protein: recombinant; tags: 6xHis-SUMO, removed with SUMO protease; label: 3'-FAM (fluorescein); single strand, 43 nt.

For the molecule CTGTAGGAATGTGAAATAAAAACGATGTTTTATTTACATTGTA (ssDNA) [S43], the binding result in data set [1] and in data set [2] was “binds” throughout.
